From paper PMC9277888, “The testis-specific E3 ubiquitin ligase RNF133 is required for fecundity in mice” (BMC Biology, 2022)
Where two headings read alike, the source gives them in different places. Each block holds one molecule with its values, some of them ahead of it.

Assays:
[1] = molecular target: T1, human HA-UBE2J1 (human, UniProt Q9Y385 1-318); assay: co-IP; HEK293 cells co-transfected with FLAG-tagged E3 and HA-tagged E2; lysed by sonication in Pierce IP buffer (25 mM Tris-HCl pH 7.4, 150 mM NaCl, 1 mM EDTA, 1% NP-40, 5% glycerol); anti-HA magnetic beads, 4 C, 1 h; washed with IP buffer with 2 mM DTT; immunoblot with anti-FLAG; band intensities by ImageJ (IP lane to input lane)
T1 construct: E2 ubiquitin-conjugating enzyme UBE2J1, human, full-length open reading frame; also called pCAG-humanUBE2J1; source: HEK293 cells, transfected (pCAG1.1, Lipofectamine 3000), in lysate; not shown: HA, N-terminal, kept
T1 sequence (looked up): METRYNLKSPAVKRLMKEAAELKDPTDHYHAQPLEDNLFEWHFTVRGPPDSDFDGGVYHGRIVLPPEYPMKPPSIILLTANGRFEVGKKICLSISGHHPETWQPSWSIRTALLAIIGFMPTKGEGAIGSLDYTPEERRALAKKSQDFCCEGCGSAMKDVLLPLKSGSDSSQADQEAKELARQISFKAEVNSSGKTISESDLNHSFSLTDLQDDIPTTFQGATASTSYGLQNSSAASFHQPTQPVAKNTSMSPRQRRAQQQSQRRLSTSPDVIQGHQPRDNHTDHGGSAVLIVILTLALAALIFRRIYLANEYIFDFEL

[2] = molecular target: T2, mouse HA-UBE2J1 (mouse, UniProt Q9JJZ4 1-318); assay: as above; settings: partners not purified
T2 construct: E2 ubiquitin-conjugating enzyme UBE2J1, mouse, full-length open reading frame; also called pCAG-mouseUbe2J1; source: HEK293 cells, transfected (pCAG1.1, Lipofectamine 3000), in lysate; not shown: HA, N-terminal, kept
T2 sequence (looked up): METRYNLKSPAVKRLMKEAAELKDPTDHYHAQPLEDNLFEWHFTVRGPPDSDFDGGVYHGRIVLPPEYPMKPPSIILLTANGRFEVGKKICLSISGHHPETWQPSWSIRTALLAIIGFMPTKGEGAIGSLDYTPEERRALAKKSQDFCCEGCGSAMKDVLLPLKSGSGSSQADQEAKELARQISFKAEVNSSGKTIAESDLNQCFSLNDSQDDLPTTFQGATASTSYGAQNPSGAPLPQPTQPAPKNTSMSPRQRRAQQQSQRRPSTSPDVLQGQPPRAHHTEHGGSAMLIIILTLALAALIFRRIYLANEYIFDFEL

- IP:input ratio (band intensity) [1]: 0.24
Molecule: human RNF133-mutant-FLAG (RING finger domain deleted) (from UniProt Q8WVZ7 1-376) (enzyme)

- IP:input ratio (band intensity) ([1]; partners not purified): 1.74
B1: human RNF133-FLAG (RING finger protein 133) (enzyme, UniProt Q8WVZ7 1-376, looked up)
chain: MHLLKVGTWRNNTASSWLMKFSVLWLVSQNCCRASVVWMAYMNISFHVGNHVLSELGETGVFGRSSTLKRVAGVIVPPEGKIQNACNPNTIFSRSKYSETWLALIERGGCTFTQKIKVATEKGASGVIIYNVPGTGNQVFPMFHQAFEDVVVVMIGNLKGTEIFHLIKKGVLITAVVEVGRKHIIWMNHYLVSFVIVTTATLAYFIFYHIHRLCLARIQNRRWQRLTTDLQNTFGQLQLRVVKEGDEEINPNGDSCVICFERYKPNDIVRILTCKHFFHKNCIDPWILPHGTCPICKCDILKVLGIQVVVENGTEPLQVLMSNELPETLSPSEEETNNEVSPAGTSDKVIHVEENPTSQNNDIQPHSVVEDVHPSP
notes: also called human RNF133-WT; RNF133 wild-type; source: HEK293 cells, transfected (pCAG1.1, Lipofectamine 3000), in lysate; not shown: FLAG, C-terminal, kept

- IP:input ratio (band intensity) [2]: 3.95
B2: mouse RNF133-FLAG (RING finger protein 133) (enzyme, UniProt Q14B02 1-382, looked up)
chain: MNPLQTSTWQNQAPSFWLLRFSFIWLVSQKCCTASAVWTAYMNISFHVGNRMLSELGETGVFGRSSILKRVAGVVVPPEGKIQNACDPNTTFILPRNKEPWIALIERGGCAFTQKIKVASEHGARGVIIYNFPGTGNQVFPMSHQAFEDIVVVMIGNIKGMEILHLIRKGVHVTVMVEVGRKHVIWLNHYFVSFMIVTTATLAYFTFYHIRRLWVARIENRRWKRLTRELKKAFGQLQVRVLKEGDEEVNPNADSCVICFEAYKPNEIVRILTCKHFFHKNCIDPWILAHGTCPMCKCDILKALGIQMDIEDGTDSLQVLMSNELPGTLSPVEEETNYELPPARTSSKVTHVQEHPTSSANAGSQPPEAEETSHPSHGQQVL
notes: also called mouse RNF133-WT; pCAG-mouseRnf133; source: HEK293 cells, transfected (pCAG1.1, Lipofectamine 3000), in lysate; not shown: FLAG, C-terminal, kept
